The supplement of paper PMC10065799, “High-throughput profiling of sequence recognition by tyrosine kinases and SH2 domains using bacterial peptide display” (eLife, 2023)

Assays:
[1] = molecular target: c-Src SH2; test: SH2 binding enrichment of the phosphorylated peptide, bacterial display (enrichment ratio); higher = better substrate or ligand; peptides without Tyr show the background
[2] = molecular target: Grb2 SH2 (UniProt P62993); test: as above
[3] = molecular target: SHP2-C SH2; test: as above
[4] = molecular target: EPHB2 (UniProt P29323); test: phosphorylation enrichment, bacterial display (enrichment ratio); higher = better substrate or ligand; peptides without Tyr show the background
[5] = molecular target: Jak2 (UniProt O60674); test: as above
[6] = molecular target: FGFR1 (UniProt P11362); test: as above
[7] = system: c-Src; test: as above
[8] = molecular target: EPHB1 (UniProt P54762); test: as above
[9] = molecular target: MERTK (UniProt Q12866); test: as above
[10] = molecular target: Fes (UniProt P07332); test: as above
[11] = system: c-Abl (mouse); test: as above
[12] = system: AncSZ; test: as above
[13] = molecular target: FGFR3 (UniProt P22607); test: as above
[14] = molecular target: Fyn (UniProt P06241); test: as above
[15] = molecular target: Hck (UniProt P08631); test: as above
[16] = system: Fer (mouse); test: as above
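For SH2 binding enrichment of the phosphorylated peptide, bacterial display in this document: peptide library displayed on the E. coli surface as eCPX fusions, selected cells deep-sequenced, score is each peptide's frequency after selection divided by its frequency in the input.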
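For phosphorylation enrichment, bacterial display in this document: 11-residue human phosphosite peptides and single-mutation variants displayed on the E. coli surface, counted by deep sequencing, each peptide's frequency after selection divided by its frequency in the unselected input library; frequency after pTyr selection over input frequency; kinase dosed for 20-30% of maximal phosphorylation in three min.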

EPHB1, sequence (P54762 whole entry, looked up): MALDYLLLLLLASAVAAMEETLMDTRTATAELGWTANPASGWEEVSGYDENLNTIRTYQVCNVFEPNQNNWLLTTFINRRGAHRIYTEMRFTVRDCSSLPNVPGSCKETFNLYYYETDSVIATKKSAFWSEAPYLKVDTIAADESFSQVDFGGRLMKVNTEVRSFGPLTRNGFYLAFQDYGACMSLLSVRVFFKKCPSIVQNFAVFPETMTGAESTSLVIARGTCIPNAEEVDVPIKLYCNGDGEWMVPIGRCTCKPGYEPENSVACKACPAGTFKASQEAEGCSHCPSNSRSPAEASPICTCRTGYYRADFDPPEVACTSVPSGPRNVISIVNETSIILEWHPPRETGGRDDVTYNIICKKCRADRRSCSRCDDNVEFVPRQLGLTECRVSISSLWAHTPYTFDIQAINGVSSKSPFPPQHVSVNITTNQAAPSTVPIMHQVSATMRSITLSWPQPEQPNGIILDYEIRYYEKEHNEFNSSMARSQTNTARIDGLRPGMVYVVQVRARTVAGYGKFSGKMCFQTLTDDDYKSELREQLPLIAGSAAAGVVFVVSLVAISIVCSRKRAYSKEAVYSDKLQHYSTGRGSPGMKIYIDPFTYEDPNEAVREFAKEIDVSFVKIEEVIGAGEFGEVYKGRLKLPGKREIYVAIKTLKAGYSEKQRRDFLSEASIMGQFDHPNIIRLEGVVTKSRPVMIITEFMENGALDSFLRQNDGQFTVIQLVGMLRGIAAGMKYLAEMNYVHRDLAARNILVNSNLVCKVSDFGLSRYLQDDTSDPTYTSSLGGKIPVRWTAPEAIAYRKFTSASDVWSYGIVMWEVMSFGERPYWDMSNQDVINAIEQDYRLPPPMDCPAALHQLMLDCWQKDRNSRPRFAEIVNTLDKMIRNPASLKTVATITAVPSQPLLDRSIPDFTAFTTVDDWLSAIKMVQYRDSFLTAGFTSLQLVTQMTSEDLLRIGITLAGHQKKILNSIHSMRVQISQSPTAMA
MERTK, sequence (Q12866 whole entry, looked up): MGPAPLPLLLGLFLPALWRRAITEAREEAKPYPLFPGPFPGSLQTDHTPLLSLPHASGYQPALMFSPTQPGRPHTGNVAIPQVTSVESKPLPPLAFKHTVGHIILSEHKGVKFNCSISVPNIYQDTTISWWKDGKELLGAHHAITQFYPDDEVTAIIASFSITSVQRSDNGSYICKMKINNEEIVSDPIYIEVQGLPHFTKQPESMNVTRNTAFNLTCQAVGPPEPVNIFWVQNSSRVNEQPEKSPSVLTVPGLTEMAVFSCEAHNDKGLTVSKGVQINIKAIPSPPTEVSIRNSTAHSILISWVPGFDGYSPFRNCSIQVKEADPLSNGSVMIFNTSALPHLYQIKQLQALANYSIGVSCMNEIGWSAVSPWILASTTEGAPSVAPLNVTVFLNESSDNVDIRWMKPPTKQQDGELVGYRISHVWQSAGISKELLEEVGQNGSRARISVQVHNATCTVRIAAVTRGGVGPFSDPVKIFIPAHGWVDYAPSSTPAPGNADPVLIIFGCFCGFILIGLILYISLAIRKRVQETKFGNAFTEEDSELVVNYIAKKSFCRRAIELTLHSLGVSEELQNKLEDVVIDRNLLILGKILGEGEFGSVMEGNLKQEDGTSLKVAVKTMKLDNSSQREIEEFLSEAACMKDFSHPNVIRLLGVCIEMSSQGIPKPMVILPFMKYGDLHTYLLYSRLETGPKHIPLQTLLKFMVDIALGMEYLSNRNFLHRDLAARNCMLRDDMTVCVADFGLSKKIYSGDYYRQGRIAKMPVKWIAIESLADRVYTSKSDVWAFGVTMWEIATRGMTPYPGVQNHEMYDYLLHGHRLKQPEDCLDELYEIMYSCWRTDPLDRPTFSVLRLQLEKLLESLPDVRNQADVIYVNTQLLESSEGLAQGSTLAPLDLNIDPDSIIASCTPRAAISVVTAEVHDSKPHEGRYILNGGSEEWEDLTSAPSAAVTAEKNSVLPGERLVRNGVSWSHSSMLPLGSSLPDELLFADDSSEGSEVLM
Jak2, sequence (O60674 whole entry, looked up): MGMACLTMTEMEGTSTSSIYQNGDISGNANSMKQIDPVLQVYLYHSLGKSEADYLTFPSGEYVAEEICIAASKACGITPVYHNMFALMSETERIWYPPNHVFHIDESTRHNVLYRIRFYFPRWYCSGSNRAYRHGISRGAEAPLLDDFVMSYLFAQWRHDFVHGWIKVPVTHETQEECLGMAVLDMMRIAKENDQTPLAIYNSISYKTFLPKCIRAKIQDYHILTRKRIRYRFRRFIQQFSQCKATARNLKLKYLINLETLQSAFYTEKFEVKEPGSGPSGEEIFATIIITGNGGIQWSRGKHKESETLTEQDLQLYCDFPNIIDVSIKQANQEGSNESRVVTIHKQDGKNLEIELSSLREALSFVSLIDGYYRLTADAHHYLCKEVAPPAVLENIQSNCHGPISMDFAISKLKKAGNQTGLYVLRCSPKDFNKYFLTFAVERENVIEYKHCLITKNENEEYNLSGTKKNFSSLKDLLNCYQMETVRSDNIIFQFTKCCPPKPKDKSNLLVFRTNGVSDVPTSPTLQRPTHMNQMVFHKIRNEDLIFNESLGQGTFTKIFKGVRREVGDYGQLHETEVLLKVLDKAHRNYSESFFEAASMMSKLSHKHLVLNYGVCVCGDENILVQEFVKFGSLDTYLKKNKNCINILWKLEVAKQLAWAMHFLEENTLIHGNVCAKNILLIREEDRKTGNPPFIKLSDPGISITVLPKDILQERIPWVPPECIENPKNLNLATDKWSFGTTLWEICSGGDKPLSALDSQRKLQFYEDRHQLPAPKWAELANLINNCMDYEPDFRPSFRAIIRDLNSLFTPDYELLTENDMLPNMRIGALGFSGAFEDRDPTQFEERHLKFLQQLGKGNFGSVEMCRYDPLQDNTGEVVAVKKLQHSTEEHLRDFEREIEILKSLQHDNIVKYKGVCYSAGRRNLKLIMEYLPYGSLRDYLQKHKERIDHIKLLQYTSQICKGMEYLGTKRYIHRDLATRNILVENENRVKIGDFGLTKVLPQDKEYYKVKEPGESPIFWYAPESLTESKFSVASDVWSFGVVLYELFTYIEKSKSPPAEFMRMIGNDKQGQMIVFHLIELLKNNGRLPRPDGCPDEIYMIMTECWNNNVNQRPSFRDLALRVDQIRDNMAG
FGFR1, sequence (P11362 whole entry, looked up): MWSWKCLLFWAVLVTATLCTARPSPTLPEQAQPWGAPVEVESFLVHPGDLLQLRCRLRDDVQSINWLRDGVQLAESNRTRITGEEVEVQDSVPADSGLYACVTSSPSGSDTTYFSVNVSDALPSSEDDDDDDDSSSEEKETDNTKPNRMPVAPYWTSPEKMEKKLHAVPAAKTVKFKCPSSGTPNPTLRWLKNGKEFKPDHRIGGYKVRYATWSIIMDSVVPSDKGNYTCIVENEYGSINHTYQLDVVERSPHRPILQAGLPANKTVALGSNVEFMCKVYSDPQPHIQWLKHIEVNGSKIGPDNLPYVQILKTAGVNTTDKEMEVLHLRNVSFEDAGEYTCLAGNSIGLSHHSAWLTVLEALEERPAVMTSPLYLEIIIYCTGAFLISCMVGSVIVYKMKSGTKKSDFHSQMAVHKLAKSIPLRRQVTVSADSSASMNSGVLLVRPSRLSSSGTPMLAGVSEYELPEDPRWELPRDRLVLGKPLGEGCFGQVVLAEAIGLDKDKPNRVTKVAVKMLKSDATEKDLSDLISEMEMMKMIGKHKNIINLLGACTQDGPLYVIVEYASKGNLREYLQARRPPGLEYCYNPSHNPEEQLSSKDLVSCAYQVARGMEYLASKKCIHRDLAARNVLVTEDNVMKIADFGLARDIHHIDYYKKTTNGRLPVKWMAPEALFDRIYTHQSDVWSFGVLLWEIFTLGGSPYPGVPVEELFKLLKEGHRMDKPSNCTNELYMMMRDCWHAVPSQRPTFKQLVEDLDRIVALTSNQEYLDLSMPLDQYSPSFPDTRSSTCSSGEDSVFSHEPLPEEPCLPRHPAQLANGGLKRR
Hck, sequence (P08631 whole entry, looked up): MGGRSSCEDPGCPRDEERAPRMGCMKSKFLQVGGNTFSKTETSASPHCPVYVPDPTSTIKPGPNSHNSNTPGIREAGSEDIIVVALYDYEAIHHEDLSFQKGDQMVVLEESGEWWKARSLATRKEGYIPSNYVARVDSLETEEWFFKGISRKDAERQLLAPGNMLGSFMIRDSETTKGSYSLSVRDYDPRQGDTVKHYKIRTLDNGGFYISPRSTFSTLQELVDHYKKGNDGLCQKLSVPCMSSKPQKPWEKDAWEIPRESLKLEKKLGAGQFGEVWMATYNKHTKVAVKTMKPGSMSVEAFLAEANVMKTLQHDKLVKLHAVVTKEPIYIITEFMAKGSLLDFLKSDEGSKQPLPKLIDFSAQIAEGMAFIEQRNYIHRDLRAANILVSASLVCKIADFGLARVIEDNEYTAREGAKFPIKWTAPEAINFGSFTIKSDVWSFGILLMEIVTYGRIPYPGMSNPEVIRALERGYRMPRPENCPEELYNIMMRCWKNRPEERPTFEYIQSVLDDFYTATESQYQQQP
Fyn, sequence (P06241 whole entry, looked up): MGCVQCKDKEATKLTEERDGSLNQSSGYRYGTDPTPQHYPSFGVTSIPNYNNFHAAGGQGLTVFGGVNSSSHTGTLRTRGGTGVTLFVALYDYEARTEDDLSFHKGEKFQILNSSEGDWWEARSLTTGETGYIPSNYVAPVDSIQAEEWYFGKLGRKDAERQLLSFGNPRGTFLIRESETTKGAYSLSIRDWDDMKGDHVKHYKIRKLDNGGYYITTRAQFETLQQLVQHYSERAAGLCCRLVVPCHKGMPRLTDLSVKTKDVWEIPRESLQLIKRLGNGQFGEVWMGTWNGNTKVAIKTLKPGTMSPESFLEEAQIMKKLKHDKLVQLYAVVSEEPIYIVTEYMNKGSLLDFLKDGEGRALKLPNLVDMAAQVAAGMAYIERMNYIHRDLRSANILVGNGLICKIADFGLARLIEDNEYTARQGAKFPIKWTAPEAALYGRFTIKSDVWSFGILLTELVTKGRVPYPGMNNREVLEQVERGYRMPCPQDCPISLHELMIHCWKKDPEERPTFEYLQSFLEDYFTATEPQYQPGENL

| Sequence | SH2 binding enrichment [1] | SH2 binding enrichment [2] | SH2 binding enrichment [3] | phosphorylation enrichment [4] | phosphorylation enrichment [5] | phosphorylation enrichment [6] | phosphorylation enrichment [7] | phosphorylation enrichment [8] | phosphorylation enrichment [9] | phosphorylation enrichment [10] | phosphorylation enrichment [11] | phosphorylation enrichment [12] | phosphorylation enrichment [13] | phosphorylation enrichment [14] | phosphorylation enrichment [15] | phosphorylation enrichment [16] |
| --- | --- | --- | --- | --- | --- | --- | --- | --- | --- | --- | --- | --- | --- | --- | --- | --- |
| ASENVYVNTAH [CTSC_Y150_I153T] | 1.27 | 7.62 | 1.12 | 0.588 | 0.772 | 0.633 | 0.814 | 0.7 | 0.429 | 0.86 | 0.599 | 0.936 | 0.485 | 0.748 | 0.796 | 0.527 |
| ASFGPYTRVQS [FOXL2_Y258_YF] | 1.43 | 0.655 | 4.01 | 0.381 | 0.669 | 0.527 | 0.481 | 0.524 | 0.498 | 0.606 | 0.449 | 0.61 | 0.494 | 0.515 | 0.483 | 0.409 |
| ATPSQYMTFLH [DYNC2H1_Y2872_R2871Q] | 0.75 | 0.799 | 2.86 | 0.473 | 0.99 | 0.562 | 2.62 | 0.593 | 1.06 | 0.791 | 0.885 | 0.903 | 0.651 | 3.39 | 2.29 | 0.541 |
| ATVQNYLPKCI [A2M_Y817_L815Q] | 0.497 | 0.827 | 0.581 | 0.482 | 0.688 | 0.462 | 0.362 | 0.39 | 0.372 | 0.862 | 0.687 | 0.626 | 0.489 | 0.369 | 0.346 | 0.406 |
| AVDVTYDGHPV [FLNB_Y1020] | 0.444 | 0.803 | 0.476 | 3.74 | 0.724 | 0.497 | 2.55 | 1.09 | 0.429 | 0.982 | 0.705 | 1.11 | 0.63 | 2.3 | 2.78 | 0.925 |
| AVEDQYFRVDC [FHL1_Y207_C209R_YF] | 0.591 | 0.934 | 0.892 | 0.568 | 1.6 | 4.27 | 0.519 | 0.655 | 0.499 | 1.38 | 0.838 | 2.04 | 3.33 | 0.552 | 0.542 | 0.626 |
| AVEDQYYCVDC [FHL1_Y207] | 1.08 | 0.877 | 0.748 | 0.598 | 1.39 | 5.7 | 1.97 | 0.53 | 0.72 | 1.3 | 0.786 | 2.07 | 4.65 | 0.853 | 0.796 | 0.684 |
| AVLSLYASGRT [ACTA1_Y145] | 0.555 | 0.971 | 0.731 | 0.571 | 1.04 | 0.523 | 0.461 | 0.622 | 0.413 | 1.2 | 0.813 | 1.02 | 0.699 | 0.489 | 0.702 | 0.503 |
| AYGGGYGGVLT [KRT19_Y65] | 0.401 | 0.623 | 0.614 | 0.458 | 0.485 | 0.456 | 0.573 | 0.461 | 0.372 | 0.574 | 0.485 | 0.583 | 0.645 | 0.442 | 0.605 | 0.477 |
| AYQGKYTPSGQ [ALDOA_Y343_C339Y] | 0.622 | 0.939 | 0.639 | 0.299 | 0.545 | 0.316 | 0.35 | 0.388 | 0.337 | 0.441 | 0.384 | 0.383 | 0.375 | 0.262 | 0.309 | 0.345 |
| CHKCTYKVTGL | 1.34 | 1.46 | 1.46 | 0.462 | 0.556 | 0.488 | 0.504 | 0.444 | 0.453 | 0.682 | 0.523 | 0.622 | 0.693 | 0.49 | 0.472 | 0.419 |
| CKSIHYDLVFL [COL22A1_Y37_V35I] | 1.06 | 0.736 | 0.573 | 0.755 | 1.36 | 0.651 | 0.562 | 0.751 | 1.51 | 1.55 | 0.936 | 1.49 | 0.895 | 0.574 | 0.686 | 8.93 |
| CQNRFYDAKVR [FKBP6_Y188_R183C] | 0.684 | 0.941 | 0.914 | 0.485 | 0.869 | 0.495 | 0.416 | 0.445 | 0.477 | 0.897 | 0.684 | 0.794 | 0.669 | 0.373 | 0.475 | 0.426 |
| CRWKRYQRSHD [GDPD5_Y30] | 0.483 | 0.679 | 0.604 | 0.516 | 0.573 | 0.481 | 0.579 | 0.458 | 0.487 | 0.563 | 0.482 | 0.675 | 0.508 | 0.472 | 0.527 | 0.469 |
| DCAAIYGSEPE [AKR1A1_Y50_N52S] | 0.633 | 0.927 | 0.553 | 0.578 | 1.46 | 0.453 | 1.4 | 0.572 | 0.474 | 1.34 | 0.791 | 1.14 | 0.726 | 0.968 | 0.844 | 0.599 |

More lines, main results first:

| SH2 binding enrichment [1] | SH2 binding enrichment [2] | SH2 binding enrichment [3] | Sequence | phosphorylation enrichment [4] | phosphorylation enrichment [5] | phosphorylation enrichment [6] | phosphorylation enrichment [7] | phosphorylation enrichment [8] | phosphorylation enrichment [9] | phosphorylation enrichment [10] | phosphorylation enrichment [11] | phosphorylation enrichment [12] | phosphorylation enrichment [13] | phosphorylation enrichment [14] | phosphorylation enrichment [15] | phosphorylation enrichment [16] |
| --- | --- | --- | --- | --- | --- | --- | --- | --- | --- | --- | --- | --- | --- | --- | --- | --- |
| 0.536 | 0.998 | 0.533 | ATHRGYDSDNP [MMUT_Y146] | 0.444 | 0.523 | 0.377 | 0.365 | 0.342 | 0.363 | 0.731 | 0.548 | 0.586 | 0.472 | 0.404 | 0.471 | 0.418 |
| 0.524 | 0.952 | 0.433 | AVARMYGVLPW [PLP1_Y207_D203V] | 0.644 | 0.666 | 0.524 | 2.19 | 0.411 | 0.491 | 0.866 | 0.656 | 0.689 | 0.536 | 2.46 | 3.59 | 0.505 |
| 1.19 | 1.37 | 1.51 | AVLVQYFMEHH [PTPN11_Y80_E76V_YF] | 0.613 | 1.07 | 0.466 | 0.421 | 0.638 | 0.429 | 1.15 | 0.638 | 0.934 | 0.813 | 0.503 | 0.448 | 0.484 |
| 1.21 | 1.16 | 1.27 | CEHRGHLYLAI [TEK_Y897_Y897H] | 0.441 | 0.833 | 0.646 | 0.377 | 0.665 | 0.374 | 1.28 | 0.676 | 1.07 | 0.722 | 0.908 | 0.417 | 0.537 |
| 1.09 | 1.17 | 1.24 | CFCSWYRGWAP [TIMP3_Y195_G190C_YF] | 0.707 | 1.25 | 1.07 | 4.5 | 0.859 | 0.556 | 1.44 | 0.933 | 1.28 | 1.03 | 0.647 | 0.887 | 4.11 |
| 0.452 | 0.793 | 0.631 | CGTPDYIAREI [PRKCG_Y521_P524R] | 0.622 | 1.06 | 0.633 | 0.443 | 0.724 | 0.445 | 1.13 | 0.849 | 1.26 | 0.866 | 0.53 | 0.631 | 0.604 |
| 0.421 | 0.87 | 0.586 | CGTPEYLAPEI [PRKACA_Y205] | 0.757 | 1.51 | 0.718 | 0.535 | 0.893 | 0.463 | 1.57 | 2.42 | 2.65 | 1.06 | 0.531 | 0.633 | 0.679 |
| 0.471 | 0.763 | 0.588 | CPEASYNRSPI [PTAR1_Y42_R41S] | 0.565 | 0.882 | 0.58 | 0.528 | 0.602 | 0.585 | 1.09 | 0.781 | 0.82 | 0.701 | 0.489 | 0.521 | 0.825 |
| 0.814 | 1.3 | 0.9 | CPPEVYAIMRG [NTRK1_Y757] | 0.564 | 0.87 | 0.455 | 2.39 | 0.976 | 1.16 | 1.12 | 0.695 | 1.24 | 0.765 | 1.25 | 2 | 0.51 |
| 0.518 | 0.781 | 0.568 | CQGSLYPSNHD [LRIG1_Y996] | 0.531 | 1.03 | 0.531 | 0.571 | 0.582 | 0.391 | 0.979 | 0.567 | 0.879 | 0.551 | 0.535 | 0.611 | 0.501 |
| 6.38 | 1.3 | 2.87 | CTAIHYNYMCN [TP53_Y234_T231A] | 0.506 | 0.569 | 0.479 | 0.441 | 0.628 | 0.398 | 0.727 | 0.48 | 0.707 | 0.581 | 0.386 | 0.429 | 0.401 |
| 0.931 | 0.874 | 0.661 | CTTIDYNFMCN [TP53_Y234_H233D_YF] | 0.651 | 1.21 | 0.882 | 0.874 | 0.474 | 0.529 | 1.27 | 1.04 | 1.27 | 0.911 | 0.527 | 0.528 | 0.597 |
| 0.895 | 0.949 | 0.605 | CTTIHDNFMCN [TP53_Y234_Y234D_YF] | 0.512 | 0.849 | 0.516 | 0.436 | 0.544 | 0.37 | 0.898 | 0.631 | 0.841 | 0.592 | 0.441 | 0.54 | 0.465 |
| 4.92 | 1.43 | 2.75 | CTTIHYNYMCS [TP53_Y234_N239S] | 0.62 | 0.636 | 0.647 | 0.538 | 0.992 | 0.545 | 0.835 | 0.715 | 0.848 | 0.639 | 0.44 | 0.531 | 0.713 |
| 3.88 | 1.65 | 3.28 | CTTIHYNYMCY [TP53_Y234_N239Y] | 3.42 | 0.957 | 3.76 | 2.17 | 5.43 | 0.804 | 1 | 0.78 | 0.946 | 1.95 | 1.15 | 0.647 | 1.25 |
| 2.07 | 0.927 | 0.994 | CTTIPYNFMCN [TP53_Y234_H233P_YF] | 0.514 | 0.718 | 0.515 | 0.753 | 0.449 | 0.482 | 0.926 | 0.528 | 0.945 | 0.726 | 0.48 | 0.561 | 0.424 |
| 0.53 | 1.08 | 5.6 | DAPVVYLGSFR [PRAG1_Y132] | 0.449 | 0.73 | 0.418 | 0.449 | 0.402 | 0.476 | 0.906 | 0.743 | 0.773 | 0.52 | 0.436 | 0.575 | 0.448 |
| 0.576 | 0.977 | 0.759 | DASENYFVTDS [TMEM240_Y77] | 0.886 | 1.37 | 1.35 | 0.492 | 1.44 | 0.516 | 1.23 | 0.86 | 1.41 | 1.44 | 0.444 | 0.659 | 0.517 |
